Reference: article PMC5932227

Target: cynomolgus OX40, native, on activated cynomolgus CD4 T cells (cynomolgus (endogenous in primary CD4 T cells))
Assay: flow cytometry on cells

Kd: 0.024 nM
Substance: MEDI6383, human OX40 ligand IgG4P Fc fusion protein
